Experimental findings from US20230357362A1 are described below.

Experiment [1] addresses Histone H4 OS = Homo sapiens GN = HIST1H4A PE = 1 (Homo sapiens) (UniProt P62805). The experiment in a line: co-IP with M53 from SW480 lysate, LC-MS.
Experiment [2] has as its target Heat shock cognate 71 kDa protein OS = Homo sapiens (Homo sapiens) (UniProt P11142). The experiment is described as follows: co-IP with M53 from SW480 lysate, LC-MS.
Experiment [3] concerns the target Isoform 2 of Glyceraldehyde-3-phosphate (name cut off as printed) (UniProt P04406). The experiment in a line: co-IP with M53 from SW480 lysate, LC-MS.
Experiment [4] concerns the target Isoform 2 of Annexin A2 OS = Homo sapiens GN = ANXA2 (Homo sapiens) (UniProt P07355). The experiment is described as follows: co-IP with M53 from SW480 lysate, LC-MS.
Experiment [5] deals with 40S ribosomal protein S3 OS = Homo sapiens GN = RPS3 (Homo sapiens) (UniProt P23396). The experiment in a line: co-IP with M53 from SW480 lysate, LC-MS.
Experiment [6] has as its target Tubulin beta-4B chain OS = Homo sapiens GN = TUBB4B (Homo sapiens) (UniProt P68371). The experiment in a line: co-IP with M53 from SW480 lysate, LC-MS.
The target in experiment [7] is Junction plakoglobin OS = Homo sapiens GN = JUP PE = 1 (Homo sapiens) (UniProt P14923). The experiment is described as follows: co-IP with M53 from SW480 lysate, LC-MS.
The target in experiment [8] is ADP/ATP translocase 3 OS = Homo sapiens GN = SLC25A6 (Homo sapiens) (UniProt P12236). The experiment is described as follows: co-IP with M53 from SW480 lysate, LC-MS.
Experiment [9] addresses DNA-dependent protein kinase catalytic subunit (UniProt P78527). The experiment in a line: co-IP with M53 from SW480 lysate, LC-MS.
Experiment [10] deals with Isoform 2 of ATP synthase subunit alpha, mitochondrial (UniProt P25705). The experiment is described as follows: co-IP with M53 from SW480 lysate, LC-MS.
Experiment [11] deals with Tubulin beta chain OS = Homo sapiens GN = TUBB PE = 1 (Homo sapiens) (UniProt P07437). The experiment is described as follows: co-IP with M53 from SW480 lysate, LC-MS.
Experiment [12] has as its target Cytoplasmic dynein 1 heavy chain 1 OS = Homo sapiens (Homo sapiens) (UniProt Q14204). The experiment is described as follows: co-IP with M53 from SW480 lysate, LC-MS.
Experiment [13] deals with Myosin-9 OS = Homo sapiens GN = MYH9 PE = 1 SV = 4 (Homo sapiens) (UniProt P35579). The experiment is described as follows: co-IP with M53 from SW480 lysate, LC-MS.
Experiment [14] addresses Isoform 2 of 40S ribosomal protein S20 OS = Homo (name cut off as printed) (Homo sapiens) (UniProt P60866). The experiment is described as follows: co-IP with M53 from SW480 lysate, LC-MS.
Experiment [15] deals with 40S ribosomal protein S15a OS = Homo sapiens (Homo sapiens) (UniProt P62244). The experiment is described as follows: co-IP with M53 from SW480 lysate, LC-MS.
The target of experiment [16] is Heat shock protein beta-1 OS = Homo sapiens (Homo sapiens) (UniProt P04792). The experiment is described as follows: co-IP with M53 from SW480 lysate, LC-MS.
Experiment [17] has as its target Heat shock protein HSP 90-alpha OS = Homo sapiens (Homo sapiens) (UniProt P07900). The experiment in a line: co-IP with M53 from SW480 lysate, LC-MS.
Experiment [18] addresses Isoform 2 of Plectin OS = Homo sapiens GN = PLEC (Homo sapiens) (UniProt Q15149). The experiment in a line: co-IP with M53 from SW480 lysate, LC-MS.
Experiment [19] has as its target ATP synthase subunit beta, mitochondrial OS = Homo (name cut off as printed) (Homo sapiens) (UniProt P06576). The experiment is described as follows: co-IP with M53 from SW480 lysate, LC-MS.
Experiment [20] has as its target Desmoplakin OS = Homo sapiens GN = DSP PE = 1 SV = 3 (Homo sapiens) (UniProt P15924). The experiment in a line: co-IP with M53 from SW480 lysate, LC-MS.
Experiment [21] concerns the target Histone H4 OS = Homo sapiens GN = HIST1H4A PE = 1 (Homo sapiens) (UniProt P62805). The experiment in a line: IP with isotype IgG control from SW480 lysate, LC-MS (negative control).
In experiment [22] the target is Heat shock cognate 71 kDa protein OS = Homo sapiens (Homo sapiens) (UniProt P11142). The experiment is described as above.
Experiment [23] concerns the target Isoform 2 of Glyceraldehyde-3-phosphate (name cut off as printed) (UniProt P04406). The experiment is described as above.
Experiment [24] concerns the target Isoform 2 of Annexin A2 OS = Homo sapiens GN = ANXA2 (Homo sapiens) (UniProt P07355). The description is as above.
Experiment [25] has as its target 40S ribosomal protein S3 OS = Homo sapiens GN = RPS3 (Homo sapiens) (UniProt P23396). Described as above.
For experiment [26], the target named is Tubulin beta-4B chain OS = Homo sapiens GN = TUBB4B (Homo sapiens) (UniProt P68371). The description is as above.
In experiment [27] the target is Junction plakoglobin OS = Homo sapiens GN = JUP PE = 1 (Homo sapiens) (UniProt P14923). The experiment is described as above.
The target in experiment [28] is ADP/ATP translocase 3 OS = Homo sapiens GN = SLC25A6 (Homo sapiens) (UniProt P12236). The experiment is described as above.
Experiment [29] concerns the target DNA-dependent protein kinase catalytic subunit (UniProt P78527). Described as above.
The target of experiment [30] is Isoform 2 of ATP synthase subunit alpha, mitochondrial (UniProt P25705). The experiment is described as above.
The target of experiment [31] is Tubulin beta chain OS = Homo sapiens GN = TUBB PE = 1 (Homo sapiens) (UniProt P07437). The description is as above.
Experiment [32] has as its target Cytoplasmic dynein 1 heavy chain 1 OS = Homo sapiens (Homo sapiens) (UniProt Q14204). The description is as above.
Experiment [33] addresses Myosin-9 OS = Homo sapiens GN = MYH9 PE = 1 SV = 4 (Homo sapiens) (UniProt P35579). Described as above.
The target in experiment [34] is endogenous fibronectin of human CRC cells (Isoform 10 of Fibronectin OS = Homo sapiens GN = FN1) (Homo sapiens) (UniProt P02751). The description is as above.
In experiment [35] the target is Isoform 2 of 40S ribosomal protein S20 OS = Homo (name cut off as printed) (Homo sapiens) (UniProt P60866). The description is as above.
The target of experiment [36] is 40S ribosomal protein S15a OS = Homo sapiens (Homo sapiens) (UniProt P62244). The description is as above.
The target in experiment [37] is Heat shock protein beta-1 OS = Homo sapiens (Homo sapiens) (UniProt P04792). The experiment is described as above.
The target in experiment [38] is Heat shock protein HSP 90-alpha OS = Homo sapiens (Homo sapiens) (UniProt P07900). Described as above.
For experiment [39], the target named is Isoform 2 of Plectin OS = Homo sapiens GN = PLEC (Homo sapiens) (UniProt Q15149). Described as above.
Experiment [40] addresses ATP synthase subunit beta, mitochondrial OS = Homo (name cut off as printed) (Homo sapiens) (UniProt P06576). The description is as above.
Experiment [41] deals with Desmoplakin OS = Homo sapiens GN = DSP PE = 1 SV = 3 (Homo sapiens) (UniProt P15924). The description is as above.

Sequence of dysadherin (FXYD5) as expressed in human CRC cells (endogenous in SW480 cells; overexpressed in HCT116 cells) (Q96DB9 22-178): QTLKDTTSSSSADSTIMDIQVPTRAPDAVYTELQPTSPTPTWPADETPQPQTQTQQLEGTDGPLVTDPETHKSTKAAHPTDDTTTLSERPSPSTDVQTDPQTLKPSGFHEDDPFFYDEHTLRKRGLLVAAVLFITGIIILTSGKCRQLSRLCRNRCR
Sequence of ATP synthase subunit beta, mitochondrial OS = Homo (name cut off as printed) (Homo sapiens) (P06576 48-529 limits assumed): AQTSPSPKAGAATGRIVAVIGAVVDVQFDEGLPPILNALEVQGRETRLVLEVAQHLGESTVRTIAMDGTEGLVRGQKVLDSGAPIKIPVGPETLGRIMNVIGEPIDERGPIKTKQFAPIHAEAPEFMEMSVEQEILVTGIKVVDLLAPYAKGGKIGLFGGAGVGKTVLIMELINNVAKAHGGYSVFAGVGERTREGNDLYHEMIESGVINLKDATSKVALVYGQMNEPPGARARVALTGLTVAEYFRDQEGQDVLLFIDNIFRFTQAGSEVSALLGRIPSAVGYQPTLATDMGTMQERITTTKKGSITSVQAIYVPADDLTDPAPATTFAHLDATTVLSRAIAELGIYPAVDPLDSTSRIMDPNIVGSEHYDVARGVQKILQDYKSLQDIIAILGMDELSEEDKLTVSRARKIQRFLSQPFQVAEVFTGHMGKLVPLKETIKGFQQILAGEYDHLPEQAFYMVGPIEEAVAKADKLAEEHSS
Sequence of Tubulin beta-4B chain OS = Homo sapiens GN = TUBB4B (Homo sapiens) (P68371 whole entry): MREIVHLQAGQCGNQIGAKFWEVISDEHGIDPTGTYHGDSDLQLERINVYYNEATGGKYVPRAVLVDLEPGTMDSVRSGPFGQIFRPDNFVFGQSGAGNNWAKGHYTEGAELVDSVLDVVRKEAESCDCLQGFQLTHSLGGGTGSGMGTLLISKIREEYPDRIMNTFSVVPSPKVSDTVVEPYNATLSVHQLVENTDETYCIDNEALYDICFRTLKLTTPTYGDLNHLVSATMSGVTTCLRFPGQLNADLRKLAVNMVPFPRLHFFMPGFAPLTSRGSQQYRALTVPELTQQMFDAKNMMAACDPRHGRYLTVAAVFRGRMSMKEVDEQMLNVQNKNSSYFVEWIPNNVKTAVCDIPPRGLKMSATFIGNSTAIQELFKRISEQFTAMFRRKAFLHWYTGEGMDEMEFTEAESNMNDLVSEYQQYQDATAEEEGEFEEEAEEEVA
Sequence of Isoform 2 of Glyceraldehyde-3-phosphate (name cut off as printed) (P04406 43-335 limits assumed): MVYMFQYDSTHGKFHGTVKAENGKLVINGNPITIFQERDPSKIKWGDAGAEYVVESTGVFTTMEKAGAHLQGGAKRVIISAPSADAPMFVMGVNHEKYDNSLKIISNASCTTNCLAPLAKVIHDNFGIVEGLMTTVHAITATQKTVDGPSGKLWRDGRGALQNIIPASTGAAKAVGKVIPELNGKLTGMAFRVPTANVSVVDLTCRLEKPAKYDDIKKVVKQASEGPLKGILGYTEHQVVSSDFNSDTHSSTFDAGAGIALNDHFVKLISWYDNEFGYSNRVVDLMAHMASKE
Sequence of Junction plakoglobin OS = Homo sapiens GN = JUP PE = 1 (Homo sapiens) (P14923 whole entry): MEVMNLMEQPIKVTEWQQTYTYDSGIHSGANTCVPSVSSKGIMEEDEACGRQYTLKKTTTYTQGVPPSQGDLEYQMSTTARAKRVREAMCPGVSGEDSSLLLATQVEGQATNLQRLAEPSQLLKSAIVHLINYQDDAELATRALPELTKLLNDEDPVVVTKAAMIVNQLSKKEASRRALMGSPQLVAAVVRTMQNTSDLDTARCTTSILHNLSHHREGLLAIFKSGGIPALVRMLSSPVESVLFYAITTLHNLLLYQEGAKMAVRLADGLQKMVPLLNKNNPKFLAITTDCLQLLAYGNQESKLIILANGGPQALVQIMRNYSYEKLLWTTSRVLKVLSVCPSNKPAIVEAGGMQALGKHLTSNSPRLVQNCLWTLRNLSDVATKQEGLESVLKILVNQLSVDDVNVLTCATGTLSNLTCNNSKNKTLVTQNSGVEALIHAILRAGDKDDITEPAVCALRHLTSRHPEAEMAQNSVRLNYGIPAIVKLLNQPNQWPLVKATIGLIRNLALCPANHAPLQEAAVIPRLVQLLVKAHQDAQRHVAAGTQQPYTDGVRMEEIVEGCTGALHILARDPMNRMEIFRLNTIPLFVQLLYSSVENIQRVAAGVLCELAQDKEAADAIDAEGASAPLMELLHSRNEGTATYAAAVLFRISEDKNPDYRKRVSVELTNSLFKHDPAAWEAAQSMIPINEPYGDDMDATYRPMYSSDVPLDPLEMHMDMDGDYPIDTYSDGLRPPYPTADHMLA
Sequence of Heat shock cognate 71 kDa protein OS = Homo sapiens (Homo sapiens) (P11142 2-646 limits assumed): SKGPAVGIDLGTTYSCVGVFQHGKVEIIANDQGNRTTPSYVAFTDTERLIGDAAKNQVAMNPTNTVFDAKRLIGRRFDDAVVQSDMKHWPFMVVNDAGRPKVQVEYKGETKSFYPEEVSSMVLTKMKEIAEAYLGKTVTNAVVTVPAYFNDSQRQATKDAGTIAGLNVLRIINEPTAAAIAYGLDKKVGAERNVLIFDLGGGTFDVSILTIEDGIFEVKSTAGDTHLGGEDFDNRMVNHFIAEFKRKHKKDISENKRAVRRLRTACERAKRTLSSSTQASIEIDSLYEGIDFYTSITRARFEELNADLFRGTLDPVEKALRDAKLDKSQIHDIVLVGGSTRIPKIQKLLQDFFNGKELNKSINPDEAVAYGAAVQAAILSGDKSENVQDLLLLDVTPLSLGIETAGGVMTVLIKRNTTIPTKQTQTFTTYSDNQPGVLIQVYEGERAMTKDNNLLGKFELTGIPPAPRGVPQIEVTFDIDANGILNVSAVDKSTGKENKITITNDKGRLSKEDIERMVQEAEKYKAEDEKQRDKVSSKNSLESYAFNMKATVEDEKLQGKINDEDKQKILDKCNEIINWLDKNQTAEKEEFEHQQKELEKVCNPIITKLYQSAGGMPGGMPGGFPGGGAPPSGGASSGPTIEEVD
Sequence of Myosin-9 OS = Homo sapiens GN = MYH9 PE = 1 SV = 4 (Homo sapiens) (P35579 2-1960 limits assumed): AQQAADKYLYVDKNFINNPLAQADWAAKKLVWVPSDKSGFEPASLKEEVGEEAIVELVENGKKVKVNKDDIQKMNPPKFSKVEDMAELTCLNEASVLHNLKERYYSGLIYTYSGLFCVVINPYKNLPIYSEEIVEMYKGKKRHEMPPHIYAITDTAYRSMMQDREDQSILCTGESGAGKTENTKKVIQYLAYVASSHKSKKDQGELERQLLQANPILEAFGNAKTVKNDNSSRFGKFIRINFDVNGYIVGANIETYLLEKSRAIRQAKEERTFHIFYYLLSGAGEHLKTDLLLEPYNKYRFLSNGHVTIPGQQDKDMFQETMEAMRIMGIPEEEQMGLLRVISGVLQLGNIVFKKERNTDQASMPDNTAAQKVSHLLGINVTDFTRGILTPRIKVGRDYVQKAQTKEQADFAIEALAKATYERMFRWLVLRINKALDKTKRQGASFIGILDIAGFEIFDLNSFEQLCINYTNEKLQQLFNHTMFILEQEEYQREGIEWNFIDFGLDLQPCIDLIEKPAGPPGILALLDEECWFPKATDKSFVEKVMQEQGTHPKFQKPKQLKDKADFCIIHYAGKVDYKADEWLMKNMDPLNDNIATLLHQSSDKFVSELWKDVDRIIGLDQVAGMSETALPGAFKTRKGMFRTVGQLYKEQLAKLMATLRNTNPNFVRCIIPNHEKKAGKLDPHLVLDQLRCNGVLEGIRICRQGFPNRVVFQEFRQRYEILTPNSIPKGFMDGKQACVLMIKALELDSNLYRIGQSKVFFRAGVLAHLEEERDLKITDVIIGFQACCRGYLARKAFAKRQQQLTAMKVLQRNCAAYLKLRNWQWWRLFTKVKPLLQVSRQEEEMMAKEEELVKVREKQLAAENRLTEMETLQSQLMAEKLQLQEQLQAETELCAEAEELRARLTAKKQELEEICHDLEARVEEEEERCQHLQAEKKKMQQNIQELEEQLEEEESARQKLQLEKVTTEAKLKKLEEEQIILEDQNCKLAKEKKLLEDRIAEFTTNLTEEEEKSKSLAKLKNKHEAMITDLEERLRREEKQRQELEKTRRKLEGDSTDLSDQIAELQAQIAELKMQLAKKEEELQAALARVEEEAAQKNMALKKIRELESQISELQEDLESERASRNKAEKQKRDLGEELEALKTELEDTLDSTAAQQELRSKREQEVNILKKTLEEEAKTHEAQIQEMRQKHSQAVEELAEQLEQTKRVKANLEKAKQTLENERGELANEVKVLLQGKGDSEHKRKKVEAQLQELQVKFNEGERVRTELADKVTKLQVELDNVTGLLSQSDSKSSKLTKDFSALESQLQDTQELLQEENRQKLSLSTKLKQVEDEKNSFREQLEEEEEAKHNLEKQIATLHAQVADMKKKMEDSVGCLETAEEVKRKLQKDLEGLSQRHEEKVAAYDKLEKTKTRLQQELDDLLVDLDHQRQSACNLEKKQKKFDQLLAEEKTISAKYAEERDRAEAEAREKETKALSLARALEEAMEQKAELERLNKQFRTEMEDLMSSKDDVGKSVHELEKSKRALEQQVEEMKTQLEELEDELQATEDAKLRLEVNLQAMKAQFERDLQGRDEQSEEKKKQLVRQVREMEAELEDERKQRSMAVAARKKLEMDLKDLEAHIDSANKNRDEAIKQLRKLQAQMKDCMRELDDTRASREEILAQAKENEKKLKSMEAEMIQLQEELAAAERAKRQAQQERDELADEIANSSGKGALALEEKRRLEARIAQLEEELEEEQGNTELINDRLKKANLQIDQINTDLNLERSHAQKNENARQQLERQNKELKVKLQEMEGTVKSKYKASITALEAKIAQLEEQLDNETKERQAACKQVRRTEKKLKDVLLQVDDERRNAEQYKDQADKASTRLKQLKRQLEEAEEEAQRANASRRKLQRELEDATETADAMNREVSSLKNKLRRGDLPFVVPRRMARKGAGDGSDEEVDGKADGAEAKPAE
Sequence of Heat shock protein beta-1 OS = Homo sapiens (Homo sapiens) (P04792 whole entry): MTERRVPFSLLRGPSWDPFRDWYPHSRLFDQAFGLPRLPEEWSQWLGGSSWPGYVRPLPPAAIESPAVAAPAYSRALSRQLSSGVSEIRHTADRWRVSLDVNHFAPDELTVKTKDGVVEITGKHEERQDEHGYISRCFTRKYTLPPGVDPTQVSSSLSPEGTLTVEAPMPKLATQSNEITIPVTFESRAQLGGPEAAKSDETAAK

As to “dysadherin (FXYD5) as expressed in human CRC cells (endogenous in SW480 cells; overexpressed in HCT116 cells) (from UniProt Q96DB9 22-178)”, the Probe identification probability in experiment [1], in [2], in experiment [3], in [4], in [5] and in experiment [6] was 100% in each case. Also, the Probe identification probability in experiment [7], in experiment [8], in experiment [9], in experiment [10], in experiment [11] and in experiment [12] was 100% throughout. Besides, the Probe identification probability in experiment [13], in experiment [14], in [15], in experiment [16], in experiment [17] and in [18] was 100% each time. Besides, the Probe identification probability in experiment [19] and in experiment [20] was 100% throughout.
On to isotype IgG control antibody, for which the Probe identification probability in [21] was 100%; in [22], 100%; in experiment [23], 99%; in experiment [24], 100%; in experiment [25] it was 100%; in experiment [26], 100%. Further, the Probe identification probability in experiment [27] was determined as 98%; in experiment [28], 100%; in experiment [29], 72%; in experiment [30], 100%; in experiment [31], 100%; in experiment [32] it was 10%. The Probe identification probability came out at 13% in [33]; 6% in experiment [34]; 100% in [35]; 75% in [36]; 100% in [37]; 100% in experiment [38]. For the same substance, the values for the Probe identification probability in [39], in experiment [40] and in experiment [41] were 15%, 100% and 91%, respectively.
